Results published in patent publication US20100215651A1 (GLENMARK PHARMACEUTICALS S A, published 2010).

Assays:
[1] = target: T1, human CD19 (human, UniProt P15391 20-556); assay: flow cytometry, Raji cells, MPF vs chimeric FMC63
T1 construct: CD19 as expressed on Raji, NALM-6 and SU-DHL-6 cells; also called CD19 antigen; B-cell surface antigen B4
T1 sequence: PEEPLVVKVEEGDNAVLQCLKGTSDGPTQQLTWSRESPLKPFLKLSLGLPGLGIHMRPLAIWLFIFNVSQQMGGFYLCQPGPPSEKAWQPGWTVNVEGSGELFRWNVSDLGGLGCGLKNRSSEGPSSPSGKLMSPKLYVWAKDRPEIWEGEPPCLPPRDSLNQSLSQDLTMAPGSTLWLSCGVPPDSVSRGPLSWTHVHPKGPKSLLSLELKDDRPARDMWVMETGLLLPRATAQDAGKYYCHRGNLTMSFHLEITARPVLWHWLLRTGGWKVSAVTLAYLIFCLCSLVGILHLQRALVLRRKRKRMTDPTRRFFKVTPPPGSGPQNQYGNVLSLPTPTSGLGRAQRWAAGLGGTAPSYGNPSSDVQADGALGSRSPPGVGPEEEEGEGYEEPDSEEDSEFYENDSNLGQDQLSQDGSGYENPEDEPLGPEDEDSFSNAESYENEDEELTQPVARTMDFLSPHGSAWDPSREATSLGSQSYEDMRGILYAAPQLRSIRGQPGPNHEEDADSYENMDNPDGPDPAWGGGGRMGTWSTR
Procedure: (§1) Binding of the CD19 humanized monoclonal antibodies by flow cytometry to Raji tumor cells (human Burkitt lymphoma, DSMZ ACC319), NALM-6 (human B cell precursor leukemia, DSMZ ACC128) and SU-DHL-6 (human B cell lymphoma, DSMZ ACC572) (all cell lines from DSMZ Braunschweig, Deutschland) was assessed. Cells were incubated with serial dilutions of each humanized monoclonal antibody. An irrelevant human IgG1 was used as a negative control. The cells were washed and detected by a phycoerythrin-labeled (PE) anti-human secondary antibody (eBioscience, CA, USA) and analyzed by flow cytometry. […] From MFI versus antibody concentration curves, Mid-Point Fluorescence (MPF) value for each anti-CD19 humanized antibody was calculated using the software GraphPad Prism 5 (CA, USA).

[2] = target: T1, human CD19; assay: Scatchard analysis, Eu3+-labelled antibody on Raji cells
Procedure: (§2) Raji cells as described in Example 2 were grown in RPMI-1640 medium (Chemie Brunschwig AG, PAA, Basel, Switzerland) supplemented with 10% fetal bovine serum (FBS, Chemie Brunschwig AG, PAA, Basel, Switzerland), 2 mM ultraglutamine 1 (Lonza, Verviers, Belgium) and 1% penicillin/streptomycin (Chemie Brunschwig AG, PAA, Basel, Switzerland). The cells were washed with the same culture medium and adjusted to a final concentration of 1×10⁶ cells/ml. A 100 μl volume of Raji cells was seeded in U-bottomed 96-well plate. […] Cells were incubated with Eu³⁺-antibody for 15 minutes on ice to reach equilibrium. The amount of free Eu³⁺-labelled antibodies were measured by transferring aliquots of cell-free supernatant (volumes were empirically adjusted depending on antibody concentration; cells were spun at 1300 RPM for 2 min) into a fresh plate containing 100 μl of Delfia solution (PerkinElmer, MA, USA; an enhancer of Eu³⁺ fluorescence). To ensure complete removal of the supernatant, cells were spin down once more at 1300 RPM for 2 minutes. After the second centrifugation, the supernatant was discarded, and cells were washed twice with 200 μl of cold binding buffer (PBS-2.5% FBS-0.05% NaN₃). Cell pellets were resuspended into 100 μl of Delfia solution.

[3] = target: T1, human CD19; assay: flow cytometry on SU-DHL-6 cells, PE-labelled anti-human secondary antibody, MFI against antibody concentration
Procedure: as §1

[4] = target: T1, human CD19; assay: flow cytometry, NALM-6 cells, MPF vs chimeric FMC63
Procedure: as §1

[5] = target: T1, human CD19; assay: competition with 0.2 nM Eu3+-labelled chimeric FMC63 on Raji cells
Procedure: To that aim, 100 μl volumes of Raji cells in RPMI-1640 medium (Chemie Brunschwig AG, PAA, Basel, Switzerland) supplemented with 10% fetal bovine serum (FBS, Chemie Brunschwig AG, PAA, Basel, Switzerland), 2 mM ultraglutamine 1 (Lonza, Verviers, Belgium) and 1% penicillin/streptomycin (Chemie Brunschwig AG, PAA, Basel, Switzerland), prepared at concentration of 1×10⁶ cells/ml were seeded in a U-bottomed 96-well plate. […] The antibody dilutions were cooled down to 4° C. before 100 μl was taken and added on the Raji cells. […] Cells were incubated with the antibodies for 15 minutes on ice. After reaching equilibrium, the cells were centrifuged at 1300 RPM for 2 minutes and supernatant was discarded. Cell pellets were washed twice with 200 μl of cold binding buffer PBS-2.5% FBS-0.05% NaN₃, and resuspended into 100 μl of Delfia solution. Cell bound Eu³+-FMC63 was measured with time resolved fluorescence as described above. The amount of Eu³+-FMC63 (fmole) per well was determined and plotted versus the total amount of unlabelled antibody.

[6] = target: T1, human CD19; assay: flow cytometry, Raji cells, MPF vs chimeric FMC63; remark: listed apart in the source
[7] = target: T1, human CD19; assay: flow cytometry, Raji cells, MPF vs chimeric FMC63; remark: listed apart in the source
Procedure: as §1

[8] = target: T1, human CD19; assay: Scatchard analysis (Bound/Free against Bound) of europium-labelled antibody on Raji cells, time resolved fluorescence
Procedure: as §2

[9] = target: T1, human CD19; assay: cell-based or functional assay
[10] = target: T1, human CD19; assay: binding to Raji cells
[11] = target: T1, human CD19; assay: flow cytometry on Raji cells
Procedure: as §1

B1: VH16-R94K/VL43 (antibody, human IgG1)
heavy: not shown
VL: DIVMTQTPSSLSASVGDRVTITCRASQDISKYLNWYQQKPGKAPKLLIYHTSRLHSGVPSRFSGSGSGTDFTLTISSLQPEDFATYYCQQGNTLPYTFGPGTKVDIKRTVAA
notes: Full-length human IgG1/kappa
[1]
  relative MPF (% of chimeric FMC63): 26.8%
[2]
  Kd: 47 nM
[3]
  EC50 (read off the curve): ~0.2 µg/mL
[4]
  relative MPF (% of chimeric FMC63): 14.4%
[5]
  Ki: 7.6 nM
[6]
  relative MPF (% of chimeric FMC63): 27.1%
[7]
  relative MPF (% of chimeric FMC63): 26.8%

B2: VH16 R94K VL43 T93V (antibody, human IgG1, V domains shown)
VH: QVQLVQSGGGVVQPGRSLRLSCAASGVSLPDYGVSWVRQAPGKGLEWVAVIWGSETTYYNSALKSRFTISRDNSKNTLYLQMNSLRAEDTAVYYCAKHYYYGGSYAMDYWGQGTLVTVSS
VL: DIVMTQTPSSLSASVGDRVTITCRASQDISKYLNWYQQKPGKAPKLLIYHTSRLHSGVPSRFSGSGSGTDFTLTISSLQPEDFATYYCQQGNVLPYTFGPGTKVDIKR
notes: Full-length human IgG1/kappa; substitutions in Kabat numbering; also called VK16 R94K VL43 T93V
[7]
  relative MPF (% of chimeric FMC63): 17.4%

B3: VH16 R94K VL43 P44I (antibody, human IgG1, V domains shown)
VH: QVQLVQSGGGVVQPGRSLRLSCAASGVSLPDYGVSWVRQAPGKGLEWVAVIWGSETTYYNSALKSRFTISRDNSKNTLYLQMNSLRAEDTAVYYCAKHYYYGGSYAMDYWGQGTLVTVSS
VL: DIVMTQTPSSLSASVGDRVTITCRASQDISKYLNWYQQKPGKAIKLLIYHTSRLHSGVPSRFSGSGSGTDFTLTISSLQPEDFATYYCQQGNTLPYTFGPGTKVDIKR
notes: Full-length human IgG1/kappa; substitutions in Kabat numbering
[8]
  Kd: 19 nM
[3]
  EC50 (read off the curve): ~0.09 µg/mL

B4: VH16-R94K/VL43-V3Q-T7S-P44I-N92A (antibody, human IgG1, kappa, V domains shown)
VH: QVQLVQSGGGVVQPGRSLRLSCAASGVSLPDYGVSWVRQAPGKGLEWVAVIWGSETTYYNSALKSRFTISRDNSKNTLYLQMNSLRAEDTAVYYCAKHYYYGGSYAMDYWGQGTLVTVSS
VL: DIQMTQSPSSLSASVGDRVTITCRASQDISKYLNWYQQKPGKAIKLLIYHTSRLHSGVPSRFSGSGSGTDFTLTISSLQPEDFATYYCQQGATLPYTFGPGTKVDIKR
notes: human IgG1/kappa
[3]
  EC50 (read off the curve): ~0.09 µg/mL
[5]
  Ki: 3.9 nM
[9]
  ADCC: specific lysis of Raji cells by PBMC (LDH release), against IgG1 control: ≥ 3 fold
[6]
  relative MPF (% of chimeric FMC63): 83.3%

B5: VH16 R94K VL43 F71H (antibody, human IgG1, V domains shown)
VH: QVQLVQSGGGVVQPGRSLRLSCAASGVSLPDYGVSWVRQAPGKGLEWVAVIWGSETTYYNSALKSRFTISRDNSKNTLYLQMNSLRAEDTAVYYCAKHYYYGGSYAMDYWGQGTLVTVSS
VL: DIVMTQTPSSLSASVGDRVTITCRASQDISKYLNWYQQKPGKAPKLLIYHTSRLHSGVPSRFSGSGSGTDHTLTISSLQPEDFATYYCQQGNTLPYTFGPGTKVDIK
[10]
  binding result: binds

B6: VH16/VL43 (antibody, human IgG1, V domains shown)
VH: QVQLVQSGGGVVQPGRSLRLSCAASGVSLPDYGVSWVRQAPGKGLEWVAVIWGSETTYYNSALKSRFTISRDNSKNTLYLQMNSLRAEDTAVYYCARHYYYGGSYAMDYWGQGTLVTVSS
VL: DIVMTQTPSSLSASVGDRVTITCRASQDISKYLNWYQQKPGKAPKLLIYHTSRLHSGVPSRFSGSGSGTDFTLTISSLQPEDFATYYCQQGNTLPYTFGPGTKVDIKR
[1]
  relative MPF (% of chimeric FMC63): 7.14%
[4]
  relative MPF (% of chimeric FMC63): 3.29%
[5]
  Ki: 72.8 nM
[6]
  relative MPF (% of chimeric FMC63): 7.42%
[7]
  relative MPF (% of chimeric FMC63): 7.14%

B7: VH16 R94K/Y97F/VL43 V3Q/T7S/Y32F/N92A (antibody, human IgG1, name in Kabat numbering, V domains shown)
VH: QVQLVQSGGGVVQPGRSLRLSCAASGVSLPDYGVSWVRQAPGKGLEWVAVIWGSETTYYNSALKSRFTISRDNSKNTLYLQMNSLRAEDTAVYYCAKHYFYGGSYAMDYWGQGTLVTVSS
VL: DIQMTQSPSSLSASVGDRVTITCRASQDISKFLNWYQQKPGKAPKLLIYHTSRLHSGVPSRFSGSGSGTDFTLTISSLQPEDFATYYCQQGATLPYTFGPGTKVDIKR
notes: substitutions in Kabat numbering
[11]
  binding result: no binding

B8: VH16-Y32F-R94K-Y97F/VL43-V3Q-T7S-N92A (antibody, human IgG1, name in Kabat numbering, V domains shown)
VH: QVQLVQSGGGVVQPGRSLRLSCAASGVSLPDFGVSWVRQAPGKGLEWVAVIWGSETTYYNSALKSRFTISRDNSKNTLYLQMNSLRAEDTAVYYCAKHYFYGGSYAMDYWGQGTLVTVSS
VL: DIQMTQSPSSLSASVGDRVTITCRASQDISKYLNWYQQKPGKAPKLLIYHTSRLHSGVPSRFSGSGSGTDFTLTISSLQPEDFATYYCQQGATLPYTFGPGTKVDIKR
notes: as for B7
[5]
  Ki: 49.9 nM
[6]
  relative MPF (% of chimeric FMC63): 16.9%

B9: VH16 R94K VL43 F71T (antibody, human IgG1, V domains shown)
VH: QVQLVQSGGGVVQPGRSLRLSCAASGVSLPDYGVSWVRQAPGKGLEWVAVIWGSETTYYNSALKSRFTISRDNSKNTLYLQMNSLRAEDTAVYYCAKHYYYGGSYAMDYWGQGTLVTVSS
VL: DIVMTQTPSSLSASVGDRVTITCRASQDISKYLNWYQQKPGKAPKLLIYHTSRLHSGVPSRFSGSGSGTDTTLTISSLQPEDFATYYCQQGNTLPYTFGPGTKVDIK
[10]
  binding result: binds

B10: VH16 R94K VL43 F71S (antibody, human IgG1, V domains shown)
VH: QVQLVQSGGGVVQPGRSLRLSCAASGVSLPDYGVSWVRQAPGKGLEWVAVIWGSETTYYNSALKSRFTISRDNSKNTLYLQMNSLRAEDTAVYYCAKHYYYGGSYAMDYWGQGTLVTVSS
VL: DIVMTQTPSSLSASVGDRVTITCRASQDISKYLNWYQQKPGKAPKLLIYHTSRLHSGVPSRFSGSGSGTDSTLTISSLQPEDFATYYCQQGNTLPYTFGPGTKVDIK
[10]
  binding result: binds

B11: VH16 Y32F/R94K/Y97F/VL43 V3Q/T7S/Y32F/N92A (antibody, human IgG1, name in Kabat numbering, V domains shown)
VH: QVQLVQSGGGVVQPGRSLRLSCAASGVSLPDFGVSWVRQAPGKGLEWVAVIWGSETTYYNSALKSRFTISRDNSKNTLYLQMNSLRAEDTAVYYCAKHYFYGGSYAMDYWGQGTLVTVSS
VL: DIQMTQSPSSLSASVGDRVTITCRASQDISKFLNWYQQKPGKAPKLLIYHTSRLHSGVPSRFSGSGSGTDFTLTISSLQPEDFATYYCQQGATLPYTFGPGTKVDIKR
notes: as for B7
[11]
  binding result: no binding
